As a reminder, the EC50 is the concentration at which the effect is half-maximal.

Bounds are passed on as bounds.

B1: CIgG4E3A1(G4S)3 (Fc fusion)
chain 1: GPPCPPCPAPEFLGGPSVFLFPPKPKDTLMISRTPEVTCVVVDVSQEDPEVQFNWYVDGVEVHNAKTKPREEQFNSTYRVVSVLTVLHQDWLNGKEYKCKVSNKGLPSSIEKTISKAKGQPREPQVYTLPPCQEEMTKNQVSLWCLVKGFYPSDIAVEWESNGQPENNYKTTPPVLDSDGSFFLYSRLTVDKSRWQEGNVFSCSVMHEALHNHYTQKSLSLSLGKGGGGSGGGGSGGGGSDVQLQESGGGLVQAGGSLRLACAASGRTLSSYVVSWFRQAPGKERKFVAAITWSGLSTTYLDSVQGRFTISRDNTKDTVYLQMNSLKPQDTAIYYCAAGPNIPSILRTRESEYAYWGQGTQVTVS
chain 2: GPPCPPCPAPEFLGGPSVFLFPPKPKDTLMISRTPEVTCVVVDVSQEDPEVQFNWYVDGVEVHNAKTKPREEQFNSTYRVVSVLTVLHQDWLNGKEYKCKVSNKGLPSSIEKTISKAKGQPREPQVCTLPPSQEEMTKNQVSLSCAVKGFYPSDIAVEWESNGQPENNYKTTPPVLDSDGSFFLVSRLTVDKSRWQEGNVFSCSVMHEALHNHYTQKSLSLSLGKGGGGSGGGGSGGGGSEVQLLESGGGLVQPGGSLRLSCAASGFTFGNYDMAWVRQAPGKRPEWVSSIDTGGDITHYADSVKGRFTISRDNAKNTLYLQMNSLRPEDTAVYWCATDEEYALGPNEFDYYGQGTLVTVSS
B2: CIgG4E4A1(G4S)3 (Fc fusion)
chain 1: GPPCPPCPAPEFLGGPSVFLFPPKPKDTLMISRTPEVTCVVVDVSQEDPEVQFNWYVDGVEVHNAKTKPREEQFNSTYRVVSVLTVLHQDWLNGKEYKCKVSNKGLPSSIEKTISKAKGQPREPQVYTLPPCQEEMTKNQVSLWCLVKGFYPSDIAVEWESNGQPENNYKTTPPVLDSDGSFFLYSRLTVDKSRWQEGNVFSCSVMHEALHNHYTQKSLSLSLGKGGGGSGGGGSGGGGSDVQLQESGGGLVQPGGSLRLSCAASGFRFSNYAMRWYRQAPGKEREFVARISSTGFITRYTASVRDRFTISRDNDKNMMYLQLNKLTPQDTAHYYCNAESTDYWGQGTQVTVS
chain 2: GPPCPPCPAPEFLGGPSVFLFPPKPKDTLMISRTPEVTCVVVDVSQEDPEVQFNWYVDGVEVHNAKTKPREEQFNSTYRVVSVLTVLHQDWLNGKEYKCKVSNKGLPSSIEKTISKAKGQPREPQVCTLPPSQEEMTKNQVSLSCAVKGFYPSDIAVEWESNGQPENNYKTTPPVLDSDGSFFLVSRLTVDKSRWQEGNVFSCSVMHEALHNHYTQKSLSLSLGKGGGGSGGGGSGGGGSEVQLLESGGGLVQPGGSLRLSCAASGFTFGNYDMAWVRQAPGKRPEWVSSIDTGGDITHYADSVKGRFTISRDNAKNTLYLQMNSLRPEDTAVYWCATDEEYALGPNEFDYYGQGTLVTVSS
B3: CIgG4E3A1(G4S)2 (Fc fusion)
chain 1: GPPCPPCPAPEFLGGPSVFLFPPKPKDTLMISRTPEVTCVVVDVSQEDPEVQFNWYVDGVEVHNAKTKPREEQFNSTYRVVSVLTVLHQDWLNGKEYKCKVSNKGLPSSIEKTISKAKGQPREPQVYTLPPCQEEMTKNQVSLWCLVKGFYPSDIAVEWESNGQPENNYKTTPPVLDSDGSFFLYSRLTVDKSRWQEGNVFSCSVMHEALHNHYTQKSLSLSLGKGGGGSGGGGSDVQLQESGGGLVQAGGSLRLACAASGRTLSSYVVSWFRQAPGKERKFVAAITWSGLSTTYLDSVQGRFTISRDNTKDTVYLQMNSLKPQDTAIYYCAAGPNIPSILRTRESEYAYWGQGTQVTVS
chain 2: GPPCPPCPAPEFLGGPSVFLFPPKPKDTLMISRTPEVTCVVVDVSQEDPEVQFNWYVDGVEVHNAKTKPREEQFNSTYRVVSVLTVLHQDWLNGKEYKCKVSNKGLPSSIEKTISKAKGQPREPQVCTLPPSQEEMTKNQVSLSCAVKGFYPSDIAVEWESNGQPENNYKTTPPVLDSDGSFFLVSRLTVDKSRWQEGNVFSCSVMHEALHNHYTQKSLSLSLGKGGGGSGGGGSEVQLLESGGGLVQPGGSLRLSCAASGFTFGNYDMAWVRQAPGKRPEWVSSIDTGGDITHYADSVKGRFTISRDNAKNTLYLQMNSLRPEDTAVYWCATDEEYALGPNEFDYYGQGTLVTVSS
B4: CIgG4E4A1(G4S)2 (Fc fusion)
chain 1: GPPCPPCPAPEFLGGPSVFLFPPKPKDTLMISRTPEVTCVVVDVSQEDPEVQFNWYVDGVEVHNAKTKPREEQFNSTYRVVSVLTVLHQDWLNGKEYKCKVSNKGLPSSIEKTISKAKGQPREPQVYTLPPCQEEMTKNQVSLWCLVKGFYPSDIAVEWESNGQPENNYKTTPPVLDSDGSFFLYSRLTVDKSRWQEGNVFSCSVMHEALHNHYTQKSLSLSLGKGGGGSGGGGSDVQLQESGGGLVQPGGSLRLSCAASGFRFSNYAMRWYRQAPGKEREFVARISSTGFITRYTASVRDRFTISRDNDKNMMYLQLNKLTPQDTAHYYCNAESTDYWGQGTQVTVS
chain 2: GPPCPPCPAPEFLGGPSVFLFPPKPKDTLMISRTPEVTCVVVDVSQEDPEVQFNWYVDGVEVHNAKTKPREEQFNSTYRVVSVLTVLHQDWLNGKEYKCKVSNKGLPSSIEKTISKAKGQPREPQVCTLPPSQEEMTKNQVSLSCAVKGFYPSDIAVEWESNGQPENNYKTTPPVLDSDGSFFLVSRLTVDKSRWQEGNVFSCSVMHEALHNHYTQKSLSLSLGKGGGGSGGGGSEVQLLESGGGLVQPGGSLRLSCAASGFTFGNYDMAWVRQAPGKRPEWVSSIDTGGDITHYADSVKGRFTISRDNAKNTLYLQMNSLRPEDTAVYWCATDEEYALGPNEFDYYGQGTLVTVSS
B5: CIgG4E4A1(RS) (Fc fusion)
chain 1: GPPCPPCPAPEFLGGPSVFLFPPKPKDTLMISRTPEVTCVVVDVSQEDPEVQFNWYVDGVEVHNAKTKPREEQFNSTYRVVSVLTVLHQDWLNGKEYKCKVSNKGLPSSIEKTISKAKGQPREPQVYTLPPCQEEMTKNQVSLWCLVKGFYPSDIAVEWESNGQPENNYKTTPPVLDSDGSFFLYSRLTVDKSRWQEGNVFSCSVMHEALHNHYTQKSLSLSLGKRSDVQLQESGGGLVQPGGSLRLSCAASGFRFSNYAMRWYRQAPGKEREFVARISSTGFITRYTASVRDRFTISRDNDKNMMYLQLNKLTPQDTAHYYCNAESTDYWGQGTQVTVS
chain 2: GPPCPPCPAPEFLGGPSVFLFPPKPKDTLMISRTPEVTCVVVDVSQEDPEVQFNWYVDGVEVHNAKTKPREEQFNSTYRVVSVLTVLHQDWLNGKEYKCKVSNKGLPSSIEKTISKAKGQPREPQVCTLPPSQEEMTKNQVSLSCAVKGFYPSDIAVEWESNGQPENNYKTTPPVLDSDGSFFLVSRLTVDKSRWQEGNVFSCSVMHEALHNHYTQKSLSLSLGKRSEVQLLESGGGLVQPGGSLRLSCAASGFTFGNYDMAWVRQAPGKRPEWVSSIDTGGDITHYADSVKGRFTISRDNAKNTLYLQMNSLRPEDTAVYWCATDEEYALGPNEFDYYGQGTLVTVSS
B6: CIgG4F1A1(RS) (Fc fusion)
chain 1: GPPCPPCPAPEFLGGPSVFLFPPKPKDTLMISRTPEVTCVVVDVSQEDPEVQFNWYVDGVEVHNAKTKPREEQFNSTYRVVSVLTVLHQDWLNGKEYKCKVSNKGLPSSIEKTISKAKGQPREPQVYTLPPCQEEMTKNQVSLWCLVKGFYPSDIAVEWESNGQPENNYKTTPPVLDSDGSFFLYSRLTVDKSRWQEGNVFSCSVMHEALHNHYTQKSLSLSLGKRSDVQLQESGGGLVQAGGSLKLSCAASGGSLSRYDMGWFRQAPGKEREFVARISWSGTTKYYADAVKGRFAISRDNAKNTVYLQMNSLKPEDTAVYYCAAAFYGNRGYYDVNAYTSSGQGTQVTVS
chain 2: GPPCPPCPAPEFLGGPSVFLFPPKPKDTLMISRTPEVTCVVVDVSQEDPEVQFNWYVDGVEVHNAKTKPREEQFNSTYRVVSVLTVLHQDWLNGKEYKCKVSNKGLPSSIEKTISKAKGQPREPQVCTLPPSQEEMTKNQVSLSCAVKGFYPSDIAVEWESNGQPENNYKTTPPVLDSDGSFFLVSRLTVDKSRWQEGNVFSCSVMHEALHNHYTQKSLSLSLGKRSEVQLLESGGGLVQPGGSLRLSCAASGFTFGNYDMAWVRQAPGKRPEWVSSIDTGGDITHYADSVKGRFTISRDNAKNTLYLQMNSLRPEDTAVYWCATDEEYALGPNEFDYYGQGTLVTVSS
B7: CIgG4E4A1(G4S)1 (Fc fusion)
chain 1: GPPCPPCPAPEFLGGPSVFLFPPKPKDTLMISRTPEVTCVVVDVSQEDPEVQFNWYVDGVEVHNAKTKPREEQFNSTYRVVSVLTVLHQDWLNGKEYKCKVSNKGLPSSIEKTISKAKGQPREPQVYTLPPCQEEMTKNQVSLWCLVKGFYPSDIAVEWESNGQPENNYKTTPPVLDSDGSFFLYSRLTVDKSRWQEGNVFSCSVMHEALHNHYTQKSLSLSLGKGGGGSDVQLQESGGGLVQPGGSLRLSCAASGFRFSNYAMRWYRQAPGKEREFVARISSTGFITRYTASVRDRFTISRDNDKNMMYLQLNKLTPQDTAHYYCNAESTDYWGQGTQVTVS
chain 2: GPPCPPCPAPEFLGGPSVFLFPPKPKDTLMISRTPEVTCVVVDVSQEDPEVQFNWYVDGVEVHNAKTKPREEQFNSTYRVVSVLTVLHQDWLNGKEYKCKVSNKGLPSSIEKTISKAKGQPREPQVCTLPPSQEEMTKNQVSLSCAVKGFYPSDIAVEWESNGQPENNYKTTPPVLDSDGSFFLVSRLTVDKSRWQEGNVFSCSVMHEALHNHYTQKSLSLSLGKGGGGSEVQLLESGGGLVQPGGSLRLSCAASGFTFGNYDMAWVRQAPGKRPEWVSSIDTGGDITHYADSVKGRFTISRDNAKNTLYLQMNSLRPEDTAVYWCATDEEYALGPNEFDYYGQGTLVTVSS
B8: CIgG4F1A1(G4S)1 (Fc fusion)
chain 1: GPPCPPCPAPEFLGGPSVFLFPPKPKDTLMISRTPEVTCVVVDVSQEDPEVQFNWYVDGVEVHNAKTKPREEQFNSTYRVVSVLTVLHQDWLNGKEYKCKVSNKGLPSSIEKTISKAKGQPREPQVYTLPPCQEEMTKNQVSLWCLVKGFYPSDIAVEWESNGQPENNYKTTPPVLDSDGSFFLYSRLTVDKSRWQEGNVFSCSVMHEALHNHYTQKSLSLSLGKGGGGSDVQLQESGGGLVQAGGSLKLSCAASGGSLSRYDMGWFRQAPGKEREFVARISWSGTTKYYADAVKGRFAISRDNAKNTVYLQMNSLKPEDTAVYYCAAAFYGNRGYYDVNAYTSSGQGTQVTVS
chain 2: GPPCPPCPAPEFLGGPSVFLFPPKPKDTLMISRTPEVTCVVVDVSQEDPEVQFNWYVDGVEVHNAKTKPREEQFNSTYRVVSVLTVLHQDWLNGKEYKCKVSNKGLPSSIEKTISKAKGQPREPQVCTLPPSQEEMTKNQVSLSCAVKGFYPSDIAVEWESNGQPENNYKTTPPVLDSDGSFFLVSRLTVDKSRWQEGNVFSCSVMHEALHNHYTQKSLSLSLGKGGGGSEVQLLESGGGLVQPGGSLRLSCAASGFTFGNYDMAWVRQAPGKRPEWVSSIDTGGDITHYADSVKGRFTISRDNAKNTLYLQMNSLRPEDTAVYWCATDEEYALGPNEFDYYGQGTLVTVSS

The target of this assay is T1, recombinant human IgE (human, UniProt P01854-1 1-428).
T1 construct: made in-house (ALK); preloaded on immobilised FcεRIα in the displacement ELISA
T1 sequence (P01854 other isoform, or with tags, fused parts or gaps): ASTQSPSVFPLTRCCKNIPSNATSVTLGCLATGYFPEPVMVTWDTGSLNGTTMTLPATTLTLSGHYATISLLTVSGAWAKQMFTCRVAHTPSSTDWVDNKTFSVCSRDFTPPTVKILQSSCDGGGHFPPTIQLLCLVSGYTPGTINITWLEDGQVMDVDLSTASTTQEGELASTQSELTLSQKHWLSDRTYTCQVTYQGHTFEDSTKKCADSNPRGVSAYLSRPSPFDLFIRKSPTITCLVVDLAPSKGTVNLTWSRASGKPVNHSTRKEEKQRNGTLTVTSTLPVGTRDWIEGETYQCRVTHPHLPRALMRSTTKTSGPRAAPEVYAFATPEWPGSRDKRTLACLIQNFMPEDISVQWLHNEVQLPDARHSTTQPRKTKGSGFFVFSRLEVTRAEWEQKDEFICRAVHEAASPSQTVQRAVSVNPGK
Description: IgE-FcεRIα displacement ELISA. The method, boiled down:
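sdAbs at pM–μM were incubated 1 h on preformed complexes of 13 ng/ml recombinant human IgE with avi-tag-biotinylated human FcεRIα captured on streptavidin.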
A general note: ELISA stands for enzyme-linked immunosorbent assay.
Regarding B1, the EC50 came to 36 nM and the Max effect came out at 90%. As to B2, the EC50 was 22 nM and the Max effect was 95%. The matching figures for B3: 50 nM and more than 95%. For B4, in that order: 48 nM and 90%.

Regarding B5, the Max effect turned out to be 40%.

With B6, the Max effect was 0%.

Regarding B7, the EC50 was 130 nM and the Max effect was 85%. With B8, the Max effect amounted to 30%.
